The chains are these.
T1: CSABP (cyclosporin A-binding protein), endogenous in MH14 cells (human, UniProt Q9H6S0 1-1430)
T1 construct: also called CSABP protein; CSABP molecule
T1 sequence: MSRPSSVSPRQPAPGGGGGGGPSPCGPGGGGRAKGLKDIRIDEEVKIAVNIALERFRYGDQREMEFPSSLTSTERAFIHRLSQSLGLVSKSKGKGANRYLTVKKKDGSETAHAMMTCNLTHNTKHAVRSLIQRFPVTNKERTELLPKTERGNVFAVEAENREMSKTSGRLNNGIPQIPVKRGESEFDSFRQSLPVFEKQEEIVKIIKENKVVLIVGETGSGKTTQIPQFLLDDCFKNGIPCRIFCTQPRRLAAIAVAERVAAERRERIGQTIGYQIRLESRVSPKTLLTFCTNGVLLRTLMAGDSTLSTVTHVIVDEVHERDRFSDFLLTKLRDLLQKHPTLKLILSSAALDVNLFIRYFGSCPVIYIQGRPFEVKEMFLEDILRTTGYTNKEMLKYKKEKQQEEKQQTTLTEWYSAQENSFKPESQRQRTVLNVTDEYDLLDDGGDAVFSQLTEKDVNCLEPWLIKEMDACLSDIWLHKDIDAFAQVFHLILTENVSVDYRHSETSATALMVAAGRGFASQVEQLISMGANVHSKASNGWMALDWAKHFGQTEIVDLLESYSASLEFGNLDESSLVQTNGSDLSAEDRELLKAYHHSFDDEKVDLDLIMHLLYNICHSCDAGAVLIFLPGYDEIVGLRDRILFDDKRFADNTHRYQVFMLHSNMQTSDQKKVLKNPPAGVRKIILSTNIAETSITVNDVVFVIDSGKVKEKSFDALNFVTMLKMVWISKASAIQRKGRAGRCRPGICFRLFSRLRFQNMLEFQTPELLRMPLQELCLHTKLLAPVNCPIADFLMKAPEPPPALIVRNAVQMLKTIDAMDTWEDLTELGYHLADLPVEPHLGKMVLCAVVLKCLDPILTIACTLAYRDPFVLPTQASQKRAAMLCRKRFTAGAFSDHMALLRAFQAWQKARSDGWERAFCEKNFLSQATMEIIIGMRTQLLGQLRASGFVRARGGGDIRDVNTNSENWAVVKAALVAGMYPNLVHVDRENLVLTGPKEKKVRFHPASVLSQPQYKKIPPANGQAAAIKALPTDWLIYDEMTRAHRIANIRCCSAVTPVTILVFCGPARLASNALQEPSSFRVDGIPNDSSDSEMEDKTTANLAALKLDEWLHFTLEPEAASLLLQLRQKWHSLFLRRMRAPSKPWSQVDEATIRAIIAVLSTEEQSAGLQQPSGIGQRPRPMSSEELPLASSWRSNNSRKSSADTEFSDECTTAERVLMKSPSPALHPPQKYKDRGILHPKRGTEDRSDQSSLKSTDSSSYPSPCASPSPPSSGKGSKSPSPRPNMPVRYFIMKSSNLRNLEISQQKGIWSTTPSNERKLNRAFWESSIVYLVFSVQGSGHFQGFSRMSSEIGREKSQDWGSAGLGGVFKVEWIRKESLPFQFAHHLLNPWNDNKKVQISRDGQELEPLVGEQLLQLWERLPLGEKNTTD

B1: Protein G Sepharose (other, UniProt P19909 303-497, looked up)
chain: TYKLILNGKTLKGETTTEAVDAATAEKVFKQYANDNGVDGEWTYDDATKTFTVTEKPEVIDASELTPAVTTYKLVINGKTLKGETTTEAVDAATAEKVFKQYANDNGVDGEWTYDDATKTFTVTEKPEVIDASELTPAVTTYKLVINGKTLKGETTTKAVDAETAEKAFKQYANDNGVDGVWTYDDATKTFTVTE
B2: cyclophilin B (CyPB) (enzyme)
chain: not shown

The target in assay [1] is T1, CSABP (cyclosporin A-binding protein), …. In words: Protein G Sepharose control precipitation from MH14 cell extract, western blot with anti-CSABP antibody. For orientation: A western blot detects proteins with antibodies after separation by electrophoresis.
In assay [2] the target is B1. In words: Protein G Sepharose control precipitation from MH14 cell extract, western blot with anti-CyPB antibody.

With B1, the binding result in assay [1] is “no binding”. B2: the binding result in assay [2] is on record as “no binding”.

Source of the values: patent US20110158908A1 (SAPPORO MEDICAL UNIVERSITY, published 2011).
